Data taken from paper PMC10053439.

Target: GAD-SNX5, C-terminally truncated splice variant of SNX5 lacking the last 45 amino acids
Test: yeast two-hybrid β-galactosidase liquid assay
Conditions: mean of four transformants with SD; parent: est. 190; read off a plot

response: 21 U
Substance: LexA-VPS13A(VAB), LexA DNA-binding domain fusion to the VAB domain of VPS13A (from UniProt Q96RL7) N2418S
